From patent US20070224199A1 (UNIVERSITY OF CENTRAL FLORIDA RESEARCH FOUNDATION, published 2007) come the findings set out here.

Substitutions are numbered along the chain they refer to. Numbers in names are those of the source.

The target of data set [1] is T1, GST-hTERT-HA (C-terminal region, amino acid 946-1132, of hTERT), O14746.
T1 chain: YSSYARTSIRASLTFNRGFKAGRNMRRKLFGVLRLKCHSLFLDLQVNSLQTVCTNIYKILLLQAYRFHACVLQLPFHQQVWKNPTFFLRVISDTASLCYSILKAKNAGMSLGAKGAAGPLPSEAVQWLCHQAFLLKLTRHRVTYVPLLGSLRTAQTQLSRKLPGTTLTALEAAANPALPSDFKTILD

Data set [2] has as its target T2, Flag-hTERT (N-terminal Flag-tagged full-length hTERT) (human, UniProt O14746 1-1132).
T2 construct: expressed in transfected H1299 cells; also called Flag-tagged hTERT
Description: co-immunoprecipitation from H1299 cells (anti-Flag IP, anti-V5 immunoblot), with MG132. Here is the method:
Amino acid sequences surrounding the RING finger domain in MKRN1 and mutants used in this study. Cysteines and a histidine in the RING finger domain are shown in red. Mutated residue in MKRN1^H307E is shown in blue. (C) H1299 cells co-transfected with hTERT-HA and MKRN1 -V5 were either untreated or treated for 2 hours with 10 μg/ml ALLnN. Anti-HA immunoprecipitates were analyzed by immunoblotting using an anti-V5 antibody probe. […] (D) H1299 cells co-transfected with Flag-hTERT and MKRN1-V5 were either untreated or treated for 2 hours with 10 μM MG132. Anti-Flag immunoprecipitates were analyzed by immunoblotting using an anti-V5 antibody probe. […] Flag-hTERT was visualized with an anti-Flag antibody probe.
H1299 cells were transiently transfected with the expression vectors indicated in the figure legends using TransFast transfection reagent (Promega, Medison, Wis.) according to the manufacturer's instructions. Cells were lysed with buffer containing 0.5% NP-40, 50 mM Tris-HCl (pH 7.5), 150 mM NaCl, 2 mM phenyl methylsulphonyl fluoride. […] When ubiquitin conjugates of hTERT were detected, immunoprecipitation was performed with lysis buffer containing 0.1% SDS to dissociate its interacting proteins. […]

Data set [3] addresses T2, Flag-hTERT (N-terminal Flag-tagged …). Description: inferred from the dominant negative effect in the in vivo ubiquitination assay in H1299 cells. As to the method: H1299 cells were transiently transfected with the expression vectors indicated in the figure legends using TransFast transfection reagent (Promega, Medison, Wis.) according to the manufacturer's instructions. Cells were lysed with buffer containing 0.5% NP-40, 50 mM Tris-HCl (pH 7.5), 150 mM NaCl, 2 mM phenyl methylsulphonyl fluoride. After centrifugation at 12,000 rpm for 30 min, the supernatants were immunoprecipitated for 2 hours with anti-Flag (Sigma, St. Louis, Mo.) or anti-HA (Santa Cruz biotechnology, Santa Cruz, Calif.) antibodies and then incubated with Sepharose beads conjugated to Protein G (Amersham Biosciences Inc., Piscataway, N.J.). When ubiquitin conjugates of hTERT were detected, immunoprecipitation was performed with lysis buffer containing 0.1% SDS to dissociate its interacting proteins. Immunoblot analyses were performed using anti-hTERT (Santa Cruz biotechnology, Santa Cruz, Calif.), anti-V5 (Invitrogen, Carlsbad, Calif.), anti-HA, and anti-Flag antibodies.
To investigate whether MKRN1 contributes to the ubiqitination of hTERT in vivo, H1299 cells were cotransfected with Flag-hTERT, HA-ubiquitin, and MKRN1-V5 constructs, and immunoprecipitated with anti-Flag antibody followed by immunoblotting with anti-HA antibody. Ubiquitin conjugates of hTERT were easily detected in the presence of MG132 (FIG. 4B, lane 2 in upper blot). […]

B1: MKRN1-V5 (enzyme, not shown: small tags and cut ends)
chain: MAEAATPGTTATTSGAGAAAATAAAASPTPIPTVTAPSLGAGGGGGGSDGSGGGWTKQVTCRYFMHGVCKEGDNCRYSHDLSDSPYSVVCKYFQRGYCIYGDRCRYEHSKPLKQEEATATELTTKSSLAASSSLSSIVGPLVEMNTGEAESRNSNFATVGAGSEDWVNAIEFVPGQPYCGRTAPSCTEAPLQGSVTKEESEKEQTAVETKKQLCPYAAVGECRYGENCVYLHGDSCDMCGLQLLHPMDAAQRSQHIKSCIEAHEKDMELSFAVQRSKDMVCGICMEVVYEKANPSERRFGILSNCNHTYCLKCIRKWRSAKQFESKIIKSCPECRITSNFVIPSEYWVEEKEEKQKLILKYKEAMSNKACRYFDEGRGSCPFGGNCFYKHAYPDAGREEPQRQKVGTSSRYRAQRRNHFWELIEERENSNPFDNDEEEVVTFELGEMLLMLLAAGGDDELTDSEDEWDLFHDELEDFYDLDL
notes: Full-length MKRN1 expressed in transfected H1299 cells
B1: the “in vitro ubiquitination assay (anti-HA immunoblot)” value in data set [1] is given as “the C-terminal domain (residues 946-1132) of hTERT was efficiently ubiquitinated by wild-type MKRN1”. Moreover, the binding result in data set [2] was “binds”.

B2: MKRN1^H307E-V5 (enzyme, not shown: small tags and cut ends)
chain: B1 chain with H307E
notes: Expressed in transfected H1299 cells together with wild-type MKRN1-V5; also called hMKRN1^H307E
As to B2, the “in vitro ubiquitination assay (anti-HA immunoblot)” value in data set [1] was “but not by mutants MKRN1^307E or MKRN1^ΔC”. Further, in data set [3], the binding result is recorded as “binds”.
